The results in this text go back to publication PMC7081427.

Test in all cases: EMSA
The target of data set [1] is RRM-RGG F/A1 (UniProt P19338 267-709, F663A).
The target in data set [2] is RRM-RGG F/A3 (UniProt P19338 267-709, F663A;F676A;F684A).
For data set [3], the target named is T1, nucleolin RRM (UniProt P19338 267-645).
The target of data set [4] is RRM-RGG F/A2 (UniProt P19338 267-709, F663A;F676A).
In data set [5] the target is nucleolin RRM-RGG (UniProt P19338 267-709).
The target of data set [6] is T1, nucleolin RRM. The source holds these as a separate data set.

T1 sequence (P19338 267-645): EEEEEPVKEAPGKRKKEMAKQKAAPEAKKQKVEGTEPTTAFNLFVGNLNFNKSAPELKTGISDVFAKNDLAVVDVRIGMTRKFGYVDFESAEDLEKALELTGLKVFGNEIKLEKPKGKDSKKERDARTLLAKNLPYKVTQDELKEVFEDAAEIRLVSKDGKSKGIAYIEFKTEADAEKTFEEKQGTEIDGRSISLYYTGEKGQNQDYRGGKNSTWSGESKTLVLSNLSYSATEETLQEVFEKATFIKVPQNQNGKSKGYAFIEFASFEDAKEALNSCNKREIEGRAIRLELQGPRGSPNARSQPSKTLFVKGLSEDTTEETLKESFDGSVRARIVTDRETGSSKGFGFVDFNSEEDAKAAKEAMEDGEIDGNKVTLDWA
Chain of nucleolin RRM-RGG (P19338 267-709): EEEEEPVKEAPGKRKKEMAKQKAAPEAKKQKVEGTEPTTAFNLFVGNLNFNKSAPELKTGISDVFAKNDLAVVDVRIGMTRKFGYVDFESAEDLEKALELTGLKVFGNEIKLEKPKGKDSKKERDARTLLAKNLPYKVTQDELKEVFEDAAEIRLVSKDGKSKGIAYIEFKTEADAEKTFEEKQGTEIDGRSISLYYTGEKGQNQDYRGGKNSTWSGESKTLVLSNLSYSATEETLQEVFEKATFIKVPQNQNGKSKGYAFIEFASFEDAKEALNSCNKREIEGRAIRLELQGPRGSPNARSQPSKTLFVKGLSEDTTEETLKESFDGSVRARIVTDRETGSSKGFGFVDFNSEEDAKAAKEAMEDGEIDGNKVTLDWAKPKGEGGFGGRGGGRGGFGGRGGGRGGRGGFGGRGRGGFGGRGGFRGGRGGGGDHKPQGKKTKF
Chain of RRM-RGG F/A2 (P19338 267-709 F663A/F676A): as the sequence (P19338 267-709) above, with F397A, F410A counted along it
Chain of RRM-RGG F/A1 (P19338 267-709 F663A): as the sequence (P19338 267-709) above, with F397A counted along it
Chain of RRM-RGG F/A3 (P19338 267-709 F663A/F676A/F684A): as the sequence (P19338 267-709) above, with F397A, F410A, F418A counted along it

The Kd is the concentration at which binding is half-saturated. For GGGCGCGGGAGGAATTGGGCGGG (structured_DNA) [BCL-2], the Kd in data set [1] amounted to 75.5 ± 9.5 nM; in data set [2], 172 ± 9.1 nM; in data set [3], 73.6 ± 7.1 nM; in data set [4], 71.8 ± 6.9 nM; in data set [5] it was 79.6 ± 4 nM.

GGGGGGGGGG (ssDNA) [dG10]: in data set [6], the binding result is “binds”.
